# Measured values from patent US20250282868A1 (ITEOS BELGIUM, published 2025).
# Where a chain is given by its changes, count along the chain named.
# T1: mouse TREM2 (mouse, UniProt Q99NH8 19-227)
# T1 construct: whole, on cells
# T1 sequence (looked up): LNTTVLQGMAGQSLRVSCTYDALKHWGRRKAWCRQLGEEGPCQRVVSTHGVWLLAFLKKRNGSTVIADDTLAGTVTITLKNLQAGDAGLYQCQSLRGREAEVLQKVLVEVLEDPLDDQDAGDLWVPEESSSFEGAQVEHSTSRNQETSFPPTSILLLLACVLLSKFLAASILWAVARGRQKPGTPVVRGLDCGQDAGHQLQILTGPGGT
# T2: human TREM2 (human, UniProt Q9NZC2 19-230)
# T2 construct: on THP-1 WT cells and M2a-like macrophages (endogenous) and on CHO or HEK293T cells overexpressing human TREM2 with DAP12; also called hTREM2
# T2 sequence: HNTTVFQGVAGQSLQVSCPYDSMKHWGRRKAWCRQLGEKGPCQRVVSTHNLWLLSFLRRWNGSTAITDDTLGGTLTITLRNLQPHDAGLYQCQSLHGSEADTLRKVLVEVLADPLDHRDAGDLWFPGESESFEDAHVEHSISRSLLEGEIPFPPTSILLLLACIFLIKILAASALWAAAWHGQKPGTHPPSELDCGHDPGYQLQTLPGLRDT
# T3: cynomolgus TREM2 (cynomolgus, UniProt A0A2K5UY34 49-260)
# T3 construct: also called cynoTREM2; cTREM2
# T3 sequence: T2 sequence with A10E, W60R, L89F, F125V, I157V, L193P, Y201H
# B1: EOS006176 (antibody, V domains shown)
# VH: EVQLLESGGGLVQPGGSLRLSCAASGFTFSTHAMTWVRQAPGKGLEWVSAISANAGKTYYADSVKGRFTISRDNSKNTLYLQMNSLRAEDTAVYYCASLRGGYEVGPTFDSWGQGTLVTVSS
# VL: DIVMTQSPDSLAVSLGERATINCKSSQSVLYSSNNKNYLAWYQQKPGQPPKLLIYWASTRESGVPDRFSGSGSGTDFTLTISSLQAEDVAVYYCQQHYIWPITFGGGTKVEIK
# B2: EOS006178 (antibody, V domains shown)
# VH: B1 VH with T31N, H32Y, A33G, T35G, S111P
# VL: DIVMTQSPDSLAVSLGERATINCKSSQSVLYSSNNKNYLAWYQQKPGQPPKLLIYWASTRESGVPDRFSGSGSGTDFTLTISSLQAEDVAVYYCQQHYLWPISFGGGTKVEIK
# B3: PN-37012 (antibody, V domains shown)
# VH: EVQLLESGGGLVQPGGSLRLSCAASGFTFSNYYMAWVRQAPGKGLEWVSSLTNSGGSTYYADSVKGRFTISRDNSKNTLYLQMNSLRAEDTAVYYCTREWAGSGYFDYWGQGTLVTVSS
# VL: DIQMTQSPSSLSASVGDRVTITCKASQNVGNNLAWYQQKPGKAPKLLIYYTSNRFTGVPSRFSGSGSGTDFTLTISSLQPEDFATYYCQRIYNSPWTFGQGTKLEIK
# notes: benchmark anti-TREM2 antibody from US20190309064
# B4: Ab52 (antibody, V domains shown)
# VH: QVQLVQSGAEVKKPGASVKVSCKASGYTFTSYYIHWVRQAPGQGLEWMGIINPSGGSTSYAQKFQGRVTMTRDTSTSTVYMELSSLRSEDTAVYYCAREADDSSGYPLGLDVWGQGTMVTVSS
# VL: EIVMTQSPATLSVSPGERATLSCRASQSVSSNLAWYQQKPGQAPRLLIYGASTRATGIPARFSGSGSGTEFTLTISSLQSEDFAVYYCQQVNSLPPTFGGGTKVEIK
# notes: benchmark anti-TREM2 antibody from WO2016023019A2
# B5: EOS006181 (antibody, V domains shown)
# VH: EVQLVESGGGLVQPGRSLRLSCTASGFTFDDHAMSWFRQAPGKGLEWVGFIGSKAYGGTTEYTASVKGRFTISRDGSKSIAYLQMNSLKTEDTAVYYCARGKRYSYTYWTPAFDVWGQGTMVTVSS
# VL: DIQMTQSPSSLSASVGDRVTITCQASQDITNYLNWYQQKPGKAPKLLIYDASNLETGVPSRFSGSGSGTDFTFTISSLQPEDIATYYCQQYDSYLTFGGGTKVEIK
# B6: EOS006163 (antibody, V domains shown)
# VH: QVQLVQSGAEVKKPGSSVKVSCKASGGTFAQYAISWVRQAPGQGLEWMGVIIPDSGTANYAQKFQGRVTITADESTSTAYMELSSLRSEDTAVYYCARTQENTIFDIWGQGTMVTVSS
# VL: EIVLTQSPATLSLSPGERATLSCRASQSVSSYLAWFQQKPGQAPRLLIYDASNRATGIPARFSGSGSGTDFTLTISSLEPEDFAVYYCQQDYEWPITFGGGTKVEIK
# B7: EOS006171 (antibody, V domains shown)
# VH: QVQLVESGGGLVKPGGSLRLSCAASGFTFSDYYMSWIRQAPGKGLEWVSYISSSGSTIYYADSVKGRFTISRDNAKNSLYLQMNSLRAEDTAVYYCARLGGYYSLGPMDVWGQGTTVTVSS
# VL: B6 VL with F36Y, Y92S, E93A, W94F, I96F
# B8: 6E7 (antibody, V domains shown)
# VH: EVQLVQSGAEVKKPGESLKISCKGSGYSFTSYWIAWVRQMPGKGLEWMGIIYPGDSDTRYSPSFQGQVTISADKSISTAYLQWSSLKASDTAMYFCARQRTFYYDSSDYFDYWGQGTLVTVSS
# VL: DIQMTQSPSSVSASVGDRVTITCRASQGISSWLAWYQQKPGKAPKLLIYAASSLQNGVPSRFSGSGSGTDFTLTISSLQPEDFATYFCQQADSFPRTFGQGTKLEIK
# B9: 14D3 (antibody, V domains shown)
# VH: EVKLLEFGGGLVQPGGSMRLSCAASGFTFTDFYMNWIRQPAGRAPEWLGLIRNKTKGYTTEYNRSVKGRFTISRDNTQNMLYLQMNSLRPEDTATYYCARIGVNNGGSLDYWGQGVMVTVSS
# VL: DILIIQSPASLTVSAGARVTMSCKSSQSLLYSENNQDYLAWYQQKPGQFPKLLIYGASNRHTGVPDRFTGSGSGTDFTLTISSVQAEDLADYYCEQTYSYPYTFGAGTKLELK
# Target: T1, mouse TREM2
# Experiment: MFI on CT26 cells over-expressing mouse TREM2 and DAP12 vs CT26 empty vector
# Method: (§1) Cross-reactivity to mouse TREM2 was assessed using CT26 cells over-expressing mouse TREM2 and DAP12 (Table 23). Eight anti-TREM2 antibodies and both benchmark antibodies were considered cross-reactive to mouse TREM2 (MFI higher than isotype control and fold change of CT26-TREM2 over the CT26 Empty Vector higher than 5). The remaining anti-TREM2 antibodies were considered as being low to not cross-reactive (fold change less than 5). EOS006171 was not tested due to clear non-cross-reactivity preliminary data by octet (data not shown).
row,Binder,MFI Fold change (CT26-TREM2 over CT26-EV)
1,B1,15 fold
2,B2,15.8 fold
3,B3,21 fold
4,B4,33.6 fold
5,B5,17.4 fold

# Target: T2, human TREM2
# Experiment: flow cytometry, M2a-like macrophages
# Method: (§2) M2a-like macrophages were produced in vitro from monocytes of healthy donors. Briefly, after PBMCs isolation from peripheral blood using Lymphoprep™ gradient, CD14+ cells were purified and seeded in presence of MCSF 50 ng/ml for 6 days. Macrophages were then cultured with IL-13 and IL-4 at a concentration of 20 ng/ml for two additional days and then used for a cell-based binding assay.
# (§3) M2a-like macrophages were incubated with anti-TREM2 antibodies (dose-response curve with 11 concentrations from 10 μg/ml to 0.0001 μg/ml) for 30 min at 4° C. After washing, bound antibodies were detected with a secondary anti-human IgG Fc PE-labelled for 30 min at 4° C. Fluorescence intensity was measured by flow cytometry. Equilibrium dissociation constant (kD) was then calculated for each antibody using median MFI normalized over isotype control.
row,Binder,Fold over isotype
1,B1,13.1 fold
2,B2,5.4 fold
3,B6,13 fold
4,B5,9.3 fold

# Target: T2, human TREM2
# Experiment: cell-based or functional assay
Binder,Fold over isotype control at 66 nM,pSYK/TotSYK EC50 (nM)
B1,2.65 fold,4.05 nM
B2,2.51 fold,3.89 nM
B6,0.701 fold,
B7,2.4 fold,9.7 nM
B8,1.93 fold,1.29 nM
B5,2.84 fold,1.09 nM

# Target: T3, cynomolgus TREM2
# Experiment: MFI on CHO cells over-expressing cynoTREM2-DAP12
# Method: (§4) Cross-reactivity of anti-TREM2 antibodies to cynomolgus TREM2 (cynoTREM2) was assessed using CHO over-expressing cynoTREM2-DAP12 (Table 22). Benchmark antibodies, AB52 and PN-37012, were examined for comparison.
row,Binder,Binding to CHO-cTREM2 MFI
1,B1,20400 MFI
2,B2,19700 MFI
3,B6,17700 MFI
4,B7,13400 MFI
5,B4,25500 MFI
6,B5,11900 MFI

# Target: T2, human TREM2
# Experiment: flow cytometry, competition with LDL-Alexafluor-488 on CHO cells overexpressing human TREM2/DAP12
# Method: Exemplary anti-TREM2 antibodies were tested in order to characterize their ability to enter in competition with TREM2 ligand, LDL, on CHO overexpressing human TREM2/DAP12. Antibodies (dose response curves from 66.65 nM to 0.07 nM) were incubated for 30 min with cells in a soluble fashion, followed by an incubation with LDL coupled with Alexafluor-488 (at 1 μg/mL final) for 30 min. Finally, after 2 washes, cells were acquired on flow cytometer. The median MFI of Alexafluor-488 was used to plot the graphs. Benchmark antibody MOR044746 was used as positive control.
row,Binder,IC50
1,B6,0.169 nM
2,B5,0.28 nM

# Target: T2, human TREM2
# Experiment: cell-based or functional assay
# Remark: another data set of the same source
row,Binder,Stabilization ratio (Mean of 2 replicates)
1,B1,0.6 ratio
2,B2,0.64 ratio
3,B6,0.42 ratio
4,B7,0.46 ratio
5,B5,0.69 ratio
6,B9,0.96 ratio

# Target: T1, mouse TREM2
# Experiment: MFI on CT26 cells over-expressing mouse TREM2 and DAP12
# Method: as §1
row,Binder,Binding to CT26-TREM2 MFI
1,B1,6340 MFI
2,B2,6790 MFI
3,B3,6750 MFI
4,B4,8810 MFI
5,B5,4690 MFI

# Target: T2, human TREM2
# Experiment: flow cytometry, THP-1 WT vs THP-1 TREM2 KO cells, 10 ug/ml
# Method: (§5) In order to test specificity of selected antibodies to TREM2, binding was tested by flow cytometry on THP-1 TREM2 KO (clone, produced using CRISPR technology in house) and on THP-1 WT. Cells were incubated with selected anti-TREM2 antibodies (final concentration of 10 μg/ml) for 30 min at 4° C. After washing, bound antibodies were detected with a secondary anti-human IgG Fc PE-labelled for 30 min at 4° C. Fluorescence intensity was measured by flow cytometry.
row,Binder,MFI Fold change (THP-1 WT over THP-1 TREM2 KO)
1,B1,3.4 fold
2,B2,2.4 fold
3,B6,5.1 fold
4,B7,4.3 fold
5,B5,4.8 fold

# Target: T2, human TREM2
# Experiment: flow cytometry, THP-1 WT cells, 10 ug/ml
# Method: as §5
row,Binder,Fold over isotype control THP1 WT
1,B1,2.7 fold
2,B2,2.1 fold
3,B6,2.7 fold
4,B7,6.6 fold
5,B5,3.5 fold

# Target: T2, human TREM2
# Experiment: flow cytometry, M2a-like macrophages, dose-response
# Method: as §2, §3
row,Binder,Kd
1,B6,0.15 nM
2,B7,2.8 nM

# Target: T3, cynomolgus TREM2
# Experiment: MFI on CHO cells over-expressing cynoTREM2-DAP12 vs CHO empty vector
# Method: as §4
row,Binder,MFI Fold change (CHO-cTREM2 over CHO-EV)
1,B1,388 fold
2,B2,334 fold
3,B6,395 fold
4,B7,495 fold
5,B4,602 fold
6,B5,251 fold
